From publication PMC12368637

Experiments:
Human cystatin C (human) = Human cystatin C (human) (UniProt P01034); assay: ITC; 300 uM HSA in the syringe, 30 uM HCC in the cell; PBS; 25.2 °C; MicroCal PEAQ-ITC; single set of identical sites model
[1] = target: Human serum albumin (human) (UniProt P02768); assay: NMR (1H-15N HSQC and 15N relaxation); 15N-labelled V57G HCC with and without equimolar HSA (around 0.3 mM each); PBS, 90%/10% H2O/D2O, pH 7.0; 298 K

Row | Kd (Human cystatin C (human)) [µM] | dH (Human cystatin C (human)) [kJ/mol] | stoichiometry N (Human cystatin C (human)) | percent of V57G HCC that interacted with HSA [1] [%] | Substance
1 | 1.15 | 7.87 | 0.642 | – | Human serum albumin (from UniProt P02768 25-609) (natural protein)
2 | – | – | – | 4 | V57G mutant of human cystatin C (from UniProt P01034 27-146) (natural protein)
